{"source": "the RNAGym collection of RNA variant scans (doi:10.7554/elife.80360)", "parents": {"B1": {"name": "CPEB3 Ribozyme (parent)", "chain": "GGGGGCCACAGCAGAAGCGUUCACGUCGCGGCCCCUGUCAGAUUCUGGUGAAUCUGCGAAUUCUGCUGU"}}, "data": [{"variants_of": "B1", "assay": "self-cleavage, relative activity (ratio to wild type); higher = more cleavage; co-transcriptional", "values": [{"variant": "G48U A60U", "self-cleavage": 0.561}, {"variant": "U49A G50U", "self-cleavage": 0.986}, {"variant": "G50C C54A", "self-cleavage": 0.53}, {"variant": "G47U G50U", "self-cleavage": 1.04}, {"variant": "U49A U61C", "self-cleavage": 0.91}, {"variant": "U49G U53A", "self-cleavage": 0.918}, {"variant": "U49G U53G", "self-cleavage": 0.585}, {"variant": "U49G U53C", "self-cleavage": 0.98}, {"variant": "U49A C63U", "self-cleavage": 0.94}, {"variant": "A52C C63A", "self-cleavage": 0.795}, {"variant": "G50C A60G", "self-cleavage": 0.959}, {"variant": "G47C A60G", "self-cleavage": 1.01}, {"variant": "G47C A60C", "self-cleavage": 0.366}, {"variant": "G47A G68C", "self-cleavage": 1}, {"variant": "G48U C66G", "self-cleavage": 0.937}, {"variant": "G48C U61A", "self-cleavage": 0.962}, {"variant": "U49G G65A", "self-cleavage": 0.97}, {"variant": "G48U G58C", "self-cleavage": 0.999}, {"variant": "G50A U61G", "self-cleavage": 0.876}, {"variant": "G47A A60G", "self-cleavage": 0.944}, {"variant": "G47A A60C", "self-cleavage": 0.397}, {"variant": "U49C U64G", "self-cleavage": 0.909}, {"variant": "U49C U64A", "self-cleavage": 0.89}, {"variant": "G47A C54U", "self-cleavage": 0.972}, {"variant": "U49G A52G", "self-cleavage": 0.94}, {"variant": "A51C U53G", "self-cleavage": 0.703}, {"variant": "G50U A60G", "self-cleavage": 0.973}, {"variant": "G50U A60C", "self-cleavage": 0.382}, {"variant": "G50A A59C", "self-cleavage": 0.806}, {"variant": "G48A U49A", "self-cleavage": 0.984}, {"variant": "A51U U61C", "self-cleavage": 0.808}, {"variant": "G47C U62C", "self-cleavage": 0.91}, {"variant": "G50U U53G", "self-cleavage": 0.871}, {"variant": "G50U U53C", "self-cleavage": 0.909}, {"variant": "U49A G56C", "self-cleavage": 0.765}, {"variant": "G47U U67G", "self-cleavage": 1.01}, {"variant": "G47U U67A", "self-cleavage": 0.99}, {"variant": "G50U C66A", "self-cleavage": 0.824}, {"variant": "G50U C66G", "self-cleavage": 0.923}, {"variant": "G50U C66U", "self-cleavage": 1.01}, {"variant": "U49A U67C", "self-cleavage": 0.99}, {"variant": "U49A U67G", "self-cleavage": 1.03}, {"variant": "G47C U55G", "self-cleavage": 0.931}, {"variant": "G47C U55A", "self-cleavage": 1.03}, {"variant": "A51U C54A", "self-cleavage": 0.633}, {"variant": "A51C U55G", "self-cleavage": 0.576}, {"variant": "A51C U55C", "self-cleavage": 0.678}, {"variant": "G50C G56C", "self-cleavage": 0.456}, {"variant": "G50U U67G", "self-cleavage": 1.05}, {"variant": "G50U U67A", "self-cleavage": 1.04}, {"variant": "G50U A52G", "self-cleavage": 0.976}, {"variant": "G48A U55A", "self-cleavage": 0.99}, {"variant": "A52G A59G", "self-cleavage": 0.98}, {"variant": "A52G A59C", "self-cleavage": 0.793}, {"variant": "A52G A59U", "self-cleavage": 0.82}, {"variant": "G47U G68A", "self-cleavage": 0.991}, {"variant": "G47U G68U", "self-cleavage": 1.01}, {"variant": "G47U G68C", "self-cleavage": 1.01}, {"variant": "G48A U53G", "self-cleavage": 0.987}, {"variant": "G48A U53A", "self-cleavage": 1.03}, {"variant": "G48A U53C", "self-cleavage": 0.958}, {"variant": "G48A A51G", "self-cleavage": 1.03}, {"variant": "U49A U55G", "self-cleavage": 0.907}, {"variant": "U49A U55C", "self-cleavage": 0.895}, {"variant": "A52C G68A", "self-cleavage": 0.987}, {"variant": "A52C G68C", "self-cleavage": 0.978}, {"variant": "G47C G56A", "self-cleavage": 1}, {"variant": "G48A G68A", "self-cleavage": 1.01}, {"variant": "G48A G68U", "self-cleavage": 1.01}, {"variant": "A52C U53G", "self-cleavage": 0.788}, {"variant": "G50A C63U", "self-cleavage": 0.986}, {"variant": "G50C U64A", "self-cleavage": 0.792}, {"variant": "A51G A52G", "self-cleavage": 0.925}, {"variant": "U49C C63U", "self-cleavage": 0.993}, {"variant": "G47U G48U", "self-cleavage": 1.01}, {"variant": "G47U G48A", "self-cleavage": 1.03}, {"variant": "A51G G56A", "self-cleavage": 0.91}, {"variant": "A51G G56C", "self-cleavage": 0.69}, {"variant": "G47C A51U", "self-cleavage": 1.02}, {"variant": "G47C A51G", "self-cleavage": 1}, {"variant": "G48C U55C", "self-cleavage": 0.963}, {"variant": "G48C U55G", "self-cleavage": 0.864}, {"variant": "G50C G68A", "self-cleavage": 0.992}, {"variant": "G47U G65A", "self-cleavage": 0.953}, {"variant": "G47U G65U", "self-cleavage": 0.946}, {"variant": "G50U U64G", "self-cleavage": 0.864}, {"variant": "G50U U64C", "self-cleavage": 0.947}, {"variant": "A51U C57A", "self-cleavage": 0.374}, {"variant": "A51C C54A", "self-cleavage": 0.582}, {"variant": "G50C A52U", "self-cleavage": 0.884}, {"variant": "G47C C63G", "self-cleavage": 0.891}, {"variant": "G47C C63A", "self-cleavage": 0.944}, {"variant": "G50U A59C", "self-cleavage": 0.682}, {"variant": "A51C U62G", "self-cleavage": 0.778}, {"variant": "G50A C57U", "self-cleavage": 0.356}, {"variant": "G50A C57A", "self-cleavage": 0.448}, {"variant": "U49C G56A", "self-cleavage": 0.935}, {"variant": "U49C G56U", "self-cleavage": 0.948}, {"variant": "G47A U64G", "self-cleavage": 0.959}, {"variant": "G50A U53A", "self-cleavage": 0.903}, {"variant": "U49G G68A", "self-cleavage": 1}, {"variant": "U49G G68C", "self-cleavage": 0.958}, {"variant": "G48C G58U", "self-cleavage": 0.969}, {"variant": "G47A G50C", "self-cleavage": 1}, {"variant": "G47A G50A", "self-cleavage": 0.959}, {"variant": "G50A A52G", "self-cleavage": 1}, {"variant": "U49C U62A", "self-cleavage": 0.98}, {"variant": "U49A A52C", "self-cleavage": 1}, {"variant": "U49A A52U", "self-cleavage": 1.02}, {"variant": "G47U C54G", "self-cleavage": 0.975}, {"variant": "G47U G56U", "self-cleavage": 0.983}, {"variant": "U46G G56A", "self-cleavage": 0.941}, {"variant": "G50C U69C", "self-cleavage": 1.07}, {"variant": "G50C A51C", "self-cleavage": 0.876}, {"variant": "G50C A51G", "self-cleavage": 0.982}, {"variant": "A51G U69C", "self-cleavage": 1.06}, {"variant": "A51U U55G", "self-cleavage": 0.662}, {"variant": "U49G A51G", "self-cleavage": 0.981}, {"variant": "U49G A51U", "self-cleavage": 0.95}, {"variant": "A51C G56C", "self-cleavage": 0.57}, {"variant": "A52C G56A", "self-cleavage": 0.826}, {"variant": "G47A A51C", "self-cleavage": 0.983}, {"variant": "U46G G50C", "self-cleavage": 0.941}, {"variant": "G47U U49A", "self-cleavage": 1.01}, {"variant": "G47U U49C", "self-cleavage": 0.991}, {"variant": "U49G A60C", "self-cleavage": 0.338}, {"variant": "U49G U61G", "self-cleavage": 0.991}, {"variant": "A52C A60C", "self-cleavage": 0.398}, {"variant": "A52C A60G", "self-cleavage": 0.839}, {"variant": "G47A C66A", "self-cleavage": 0.916}, {"variant": "A51C U67C", "self-cleavage": 0.943}, {"variant": "G50A", "self-cleavage": 0.999}, {"variant": "G50C", "self-cleavage": 0.996}, {"variant": "G50U", "self-cleavage": 0.997}, {"variant": "U49A G68U", "self-cleavage": 0.982}, {"variant": "U49A G65U", "self-cleavage": 0.821}, {"variant": "A51U G65C", "self-cleavage": 0.674}, {"variant": "G47A U62G", "self-cleavage": 0.959}, {"variant": "G47U A52C", "self-cleavage": 1.02}, {"variant": "G47U A52G", "self-cleavage": 0.987}, {"variant": "U49G U67C", "self-cleavage": 0.964}, {"variant": "G47U U61C", "self-cleavage": 0.937}, {"variant": "A51U A59G", "self-cleavage": 0.993}, {"variant": "G47U U64C", "self-cleavage": 0.943}, {"variant": "G47U U64A", "self-cleavage": 0.904}, {"variant": "U49G C66A", "self-cleavage": 0.891}, {"variant": "U49C U61C", "self-cleavage": 0.816}, {"variant": "U49C U61A", "self-cleavage": 0.911}, {"variant": "U49C G50A", "self-cleavage": 0.981}, {"variant": "G47A C57G", "self-cleavage": 0.303}, {"variant": "U46G G48U", "self-cleavage": 1.01}, {"variant": "A52C G58A", "self-cleavage": 0.887}, {"variant": "A52C G58C", "self-cleavage": 0.986}, {"variant": "G47A G48U", "self-cleavage": 1.03}, {"variant": "G47U C63U", "self-cleavage": 1.01}, {"variant": "G47U C63A", "self-cleavage": 0.944}, {"variant": "G47U C63G", "self-cleavage": 0.905}, {"variant": "A51C A52U", "self-cleavage": 0.864}, {"variant": "G50U C54G", "self-cleavage": 0.781}, {"variant": "G47C U49A", "self-cleavage": 1}, {"variant": "A52C U67C", "self-cleavage": 1}, {"variant": "A52C U67G", "self-cleavage": 1}, {"variant": "G47A U49A", "self-cleavage": 1.01}, {"variant": "G47A U49C", "self-cleavage": 0.975}, {"variant": "U49G A59U", "self-cleavage": 0.835}, {"variant": "U49G A59G", "self-cleavage": 0.96}, {"variant": "A51G U61C", "self-cleavage": 0.777}]}]}
